Source: patent US20120058906A1
Each block holds one substance with its values, some of them ahead of it.

Experiments:
[1] = target: rHuman IGF-1 sR (IGF-1 sR), CF (R&D Systems Cat#391-GR) (human) (UniProt P08069); test: ECL (MSD multi-spot), Fab 210 nM; blank 833
[2] = target: rHuman Notch-1/Fc Chimera, CF (R&D Systems Cat#3647-TK) (human) (UniProt P46531); test: ECL (MSD multi-spot), Fab 210 nM; blank 833
[3] = target: rHuman EGF R/Fc Chimera, CF (R&D Systems Cat#344-ER) (human) (UniProt P00533); test: ECL (MSD multi-spot), Fab 210 nM; blank 833
[4] = target: rHuman Erythropoietin R/Fc Chimera, CF (R&D Systems Cat#963-ER) (human) (UniProt P19235); test: ECL (MSD multi-spot), Fab 210 nM; blank 833
[5] = target: rHuman ErbB2/Fc Chimera, CF (R&D Systems Cat#1129-ER) (human) (UniProt P04626); test: ECL (MSD multi-spot), Fab 210 nM; blank 833
[6] = target: rHuman HGF R/c-MET/Fc Chimera, CF (R&D Systems Cat#358-MT/CF) (human) (UniProt P08581); test: ECL (MSD multi-spot), Fab 210 nM; blank 833
[7] = target: rHuman IGF-1 sR (IGF-1 sR), CF (R&D Systems Cat#391-GR) (human) (UniProt P08069); test: ECL (MSD multi-spot), Fab 3.3 nM; blank 359
[8] = target: rHuman Notch-1/Fc Chimera, CF (R&D Systems Cat#3647-TK) (human) (UniProt P46531); test: ECL (MSD multi-spot), Fab 3.3 nM; blank 359
[9] = target: rHuman EGF R/Fc Chimera, CF (R&D Systems Cat#344-ER) (human) (UniProt P00533); test: ECL (MSD multi-spot), Fab 3.3 nM; blank 359
[10] = target: rHuman Erythropoietin R/Fc Chimera, CF (R&D Systems Cat#963-ER) (human) (UniProt P19235); test: ECL (MSD multi-spot), Fab 3.3 nM; blank 359
[11] = target: rHuman ErbB2/Fc Chimera, CF (R&D Systems Cat#1129-ER) (human) (UniProt P04626); test: ECL (MSD multi-spot), Fab 3.3 nM; blank 359
[12] = target: rHuman HGF R/c-MET/Fc Chimera, CF (R&D Systems Cat#358-MT/CF) (human) (UniProt P08581); test: ECL (MSD multi-spot), Fab 3.3 nM; blank 359
[13] = target: rHuman IGF-1 sR (IGF-1 sR), CF (R&D Systems Cat#391-GR) (human) (UniProt P08069); test: ECL (MSD multi-spot), Fab […]; blank 376
[14] = target: rHuman Notch-1/Fc Chimera, CF (R&D Systems Cat#3647-TK) (human) (UniProt P46531); test: ECL (MSD multi-spot), Fab […]; blank 376
[15] = target: rHuman EGF R/Fc Chimera, CF (R&D Systems Cat#344-ER) (human) (UniProt P00533); test: ECL (MSD multi-spot), Fab […]; blank 376
[16] = target: rHuman Erythropoietin R/Fc Chimera, CF (R&D Systems Cat#963-ER) (human) (UniProt P19235); test: ECL (MSD multi-spot), Fab […]; blank 376
[17] = target: rHuman ErbB2/Fc Chimera, CF (R&D Systems Cat#1129-ER) (human) (UniProt P04626); test: ECL (MSD multi-spot), Fab […]; blank 376
[18] = target: rHuman HGF R/c-MET/Fc Chimera, CF (R&D Systems Cat#358-MT/CF) (human) (UniProt P08581); test: ECL (MSD multi-spot), Fab […]; blank 376
[19] = target: rHuman IGF-1 sR, CF (R&D Systems Cat#391-GR) (human) (UniProt P08069); test: ECL (MSD multi-spot) screen, antigen spotted on plate, Fab at 0.21 uM; blank spot 489
[20] = target: rHuman EGF R/Fc Chimera, CF (R&D Systems Cat#344-ER) (human) (UniProt P00533); test: as above
[21] = target: rHuman ErbB2/Fc Chimera, CF (R&D Systems Cat#1129-ER) (human) (UniProt P04626); test: as above
[22] = target: rHuman HGF R/c-MET/Fc Chimera, CF (R&D Systems Cat#358-MT/CF) (human) (UniProt P08581); test: as above
[23] = target: rHuman IGF-1 sR (IGF-1 sR), CF (R&D Systems Cat#391-GR) (human) (UniProt P08069); test: ECL (MSD multi-spot), Fab 52.5 nM; blank 467
[24] = target: rHuman Notch-1/Fc Chimera, CF (R&D Systems Cat#3647-TK) (human) (UniProt P46531); test: ECL (MSD multi-spot), Fab 52.5 nM; blank 467
[25] = target: rHuman EGF R/Fc Chimera, CF (R&D Systems Cat#344-ER) (human) (UniProt P00533); test: ECL (MSD multi-spot), Fab 52.5 nM; blank 467
[26] = target: rHuman Erythropoietin R/Fc Chimera, CF (R&D Systems Cat#963-ER) (human) (UniProt P19235); test: ECL (MSD multi-spot), Fab 52.5 nM; blank 467
[27] = target: rHuman ErbB2/Fc Chimera, CF (R&D Systems Cat#1129-ER) (human) (UniProt P04626); test: ECL (MSD multi-spot), Fab 52.5 nM; blank 467
[28] = target: rHuman HGF R/c-MET/Fc Chimera, CF (R&D Systems Cat#358-MT/CF) (human) (UniProt P08581); test: ECL (MSD multi-spot), Fab 52.5 nM; blank 467
[29] = target: Recombinant Human DLL4 (R&D Systems Cat#1506-D4/CF) (human) (UniProt Q9NR61); test: ECL (MSD multi-spot) screen, antigen spotted on plate, Fab at 0.12 uM; blank spot 2225
[30] = target: rHuman Notch-1/Fc Chimera, CF (R&D Systems Cat#3647-TK) (human) (UniProt P46531); test: as above
[31] = target: rHuman ErbB2/Fc Chimera, CF (R&D Systems Cat#1129-ER) (human) (UniProt P04626); test: as above
[32] = target: rHuman HGF R/c-MET/Fc Chimera, CF (R&D Systems Cat#358-MT/CF) (human) (UniProt P08581); test: as above
[33] = target: Recombinant Human DLL4 (R&D Systems Cat#1506-D4/CF) (human) (UniProt Q9NR61); test: MSD ECL multi-spot plate, antigen immobilized; Fab 0.12 nM; blank spot 264
[34] = target: rHuman Notch-1/Fc Chimera, CF (R&D Systems Cat#3647-TK) (human) (UniProt P46531); test: as above
[35] = target: rHuman HGF R/c-MET/Fc Chimera, CF (R&D Systems Cat#358-MT/CF) (human) (UniProt P08581); test: as above
[36] = target: Recombinant Human DLL4 (R&D Systems Cat#1506-D4/CF) (human) (UniProt Q9NR61); test: MSD ECL multi-spot plate, antigen immobilized; Fab 1.2 nM; blank spot 227
[37] = target: rHuman Notch-1/Fc Chimera, CF (R&D Systems Cat#3647-TK) (human) (UniProt P46531); test: as above
[38] = target: rHuman HGF R/c-MET/Fc Chimera, CF (R&D Systems Cat#358-MT/CF) (human) (UniProt P08581); test: as above
[39] = target: Recombinant Human DLL4 (R&D Systems Cat#1506-D4/CF) (human) (UniProt Q9NR61); test: MSD ECL multi-spot plate, antigen immobilized; Fab 120 nM; blank spot 6749
[40] = target: rHuman Notch-1/Fc Chimera, CF (R&D Systems Cat#3647-TK) (human) (UniProt P46531); test: as above
[41] = target: rHuman HGF R/c-MET/Fc Chimera, CF (R&D Systems Cat#358-MT/CF) (human) (UniProt P08581); test: as above
[42] = target: Recombinant Human DLL4 (R&D Systems Cat#1506-D4/CF) (human) (UniProt Q9NR61); test: MSD ECL multi-spot plate, antigen immobilized; Fab 12 nM; blank spot 573
[43] = target: rHuman Notch-1/Fc Chimera, CF (R&D Systems Cat#3647-TK) (human) (UniProt P46531); test: as above
[44] = target: rHuman HGF R/c-MET/Fc Chimera, CF (R&D Systems Cat#358-MT/CF) (human) (UniProt P08581); test: as above
[45] = target: Recombinant Human DLL4 (R&D Systems Cat#1506-D4/CF) (human) (UniProt Q9NR61); test: MSD ECL multi-spot plate, antigen immobilized; Fab 42.112 nM; blank spot 323
[46] = target: rHuman Notch-1/Fc Chimera, CF (R&D Systems Cat#3647-TK) (human) (UniProt P46531); test: as above
[47] = target: rHuman Erythropoietin R/Fc Chimera, CF (R&D Systems Cat#963-ER) (human) (UniProt P19235); test: as above
[48] = target: rHuman HGF R/c-MET/Fc Chimera, CF (R&D Systems Cat#358-MT/CF) (human) (UniProt P08581); test: as above
[49] = target: rHuman Erythropoietin R/Fc Chimera, CF (R&D Systems Cat#963-ER) (human) (UniProt P19235); test: ECL (MSD multi-spot) screen, antigen spotted on plate, Fab at 0.42 uM; blank spot 450
[50] = target: Recombinant Human DLL4 (R&D Systems Cat#1506-D4/CF) (human) (UniProt Q9NR61); test: MSD ECL multi-spot plate, antigen immobilized; Fab 421.12 nM; blank spot 639
[51] = target: rHuman Notch-1/Fc Chimera, CF (R&D Systems Cat#3647-TK) (human) (UniProt P46531); test: as above
[52] = target: rHuman Erythropoietin R/Fc Chimera, CF (R&D Systems Cat#963-ER) (human) (UniProt P19235); test: as above
[53] = target: rHuman HGF R/c-MET/Fc Chimera, CF (R&D Systems Cat#358-MT/CF) (human) (UniProt P08581); test: as above

Chain of rHuman Erythropoietin R/Fc Chimera, CF (R&D Systems Cat#963-ER) (human) (P19235 25-250, change not shown): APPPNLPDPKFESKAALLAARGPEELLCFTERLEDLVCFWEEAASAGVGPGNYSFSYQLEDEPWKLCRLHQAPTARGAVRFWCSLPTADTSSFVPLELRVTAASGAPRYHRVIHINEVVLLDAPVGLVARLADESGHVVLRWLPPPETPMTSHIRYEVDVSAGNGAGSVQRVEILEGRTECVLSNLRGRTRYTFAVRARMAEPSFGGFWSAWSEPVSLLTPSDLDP

ECL signal [1]: 1430 ECL signal | ECL signal [2]: 1970 ECL signal | ECL signal [3]: 1620 ECL signal | ECL signal [4]: 2120 ECL signal | ECL signal [5]: 1980 ECL signal | ECL signal [6]: 2060 ECL signal | ECL signal [7]: 743 ECL signal | ECL signal [8]: 726 ECL signal | ECL signal [9]: 847 ECL signal | ECL signal [10]: 695 ECL signal | ECL signal [11]: 1030 ECL signal | ECL signal [12]: 849 ECL signal | ECL signal [13]: 814 ECL signal | ECL signal [14]: 669 ECL signal | ECL signal [15]: 824 ECL signal | ECL signal [16]: 776 ECL signal | ECL signal [17]: 930 ECL signal | ECL signal [18]: 981 ECL signal | ECL signal [19]: 1560 | ECL signal [20]: 1300 | ECL signal [21]: 1310 | ECL signal [22]: 1530 | ECL signal [23]: 911 ECL signal | ECL signal [24]: 1320 ECL signal | ECL signal [25]: 1110 ECL signal | ECL signal [26]: 1320 ECL signal | ECL signal [27]: 1510 ECL signal | ECL signal [28]: 1290 ECL signal
Substance: Fab VH4-31_IGHD2-15*01_IGHJ2*01 & V1-4_IGLJ4*01

ECL signal [29]: 6650 | ECL signal [30]: 5500 | ECL signal [31]: 4580 | ECL signal [32]: 5470 | ECL signal [33]: 210 ECL signal | ECL signal [34]: 218 ECL signal | ECL signal [35]: 287 ECL signal | ECL signal [36]: 319 ECL signal | ECL signal [37]: 660 ECL signal | ECL signal [38]: 412 ECL signal | ECL signal [39]: 20600 ECL signal | ECL signal [40]: 14400 ECL signal | ECL signal [41]: 15900 ECL signal | ECL signal [42]: 2510 ECL signal | ECL signal [43]: 2580 ECL signal | ECL signal [44]: 2700 ECL signal
Substance: Fab VH3-23_IGHD3-10*01>3_IGHJ6*01 & O12_IGKJ1*01

ECL signal [45]: 404 ECL signal | ECL signal [46]: 437 ECL signal | ECL signal [47]: 759 ECL signal | ECL signal [48]: 565 ECL signal | ECL signal [49]: 1500 | ECL signal [50]: 1090 ECL signal | ECL signal [51]: 1060 ECL signal | ECL signal [52]: 1300 ECL signal | ECL signal [53]: 1200 ECL signal
Substance: Fab VH3-23_IGHD3-10*01>1′_IGHJ3*01 & O12_IGKJ1*01
